Several values for one entry are separate records, joined by “and”; a condition that tells them apart may be missing. Equal values may be shown once. Bridges are numbered along the chain shown (N, C = ends). Where no end group is shown, it is not given here. [ ]: non-standard residue; d: D form. The star is where a group is joined. NMeW = CN[C@@H](Cc1c[nH]c2ccccc12)C(=O)O; Chg = N[C@H](C(=O)O)C1CCCCC1; Lauroyl = CCCCCCCCCCCC(=O)*; αMeS = C[C@](N)(CO)C(=O)O; NMeA = CN[C@@H](C)C(=O)O
B1: SEQ ID NO: 442 (peptide)
peptide: WXQKILDEHGQRVWG
HELM: PEPTIDE1{[ac].W.[O=C([C@@H]1CCCCN1[*:1])[*:2]].Q.K.I.L.D.E.H.[O=C([C@@H](N[*:1])C1CCCCC1)[*:2]].Q.R.V.W.G.[am]}$PEPTIDE1,PEPTIDE1,5:R3-9:R3$$$V2.0
SMILES: CC[C@H](C)[C@@H]1NC(=O)[C@@H](NC(=O)[C@H](CCC(N)=O)NC(=O)[C@@H]2CCCCN2C(=O)[C@H](Cc2c[nH]c3ccccc23)NC(C)=O)CCCCNC(=O)CC[C@@H](C(=O)N[C@@H](Cc2c[nH]cn2)C(=O)N[C@H](C(=O)N[C@@H](CCC(N)=O)C(=O)N[C@@H](CCCNC(=N)N)C(=O)N[C@H](C(=O)N[C@@H](Cc2c[nH]c3ccccc23)C(=O)NCC(N)=O)C(C)C)C2CCCCC2)NC(=O)[C@H](CC(=O)O)NC(=O)[C@H](CC(C)C)NC1=O
B2: SEQ ID NO: 459 (peptide)
peptide: Lauroyl-W[NMeA]QKILNDH[Chg]QAVW-NH2
modifications: lactam 4-8
B3: SEQ ID NO: 440 (peptide)
peptide: QKILDEHGQRVWG
HELM: PEPTIDE1{[ac].Q.K.I.L.D.E.H.[O=C([C@@H](N[*:1])C1CCCCC1)[*:2]].Q.R.V.W.G.[am]}$PEPTIDE1,PEPTIDE1,3:R3-7:R3$$$V2.0
SMILES: CC[C@H](C)[C@@H]1NC(=O)[C@@H](NC(=O)[C@H](CCC(N)=O)NC(C)=O)CCCCNC(=O)CC[C@@H](C(=O)N[C@@H](Cc2c[nH]cn2)C(=O)N[C@H](C(=O)N[C@@H](CCC(N)=O)C(=O)N[C@@H](CCCNC(=N)N)C(=O)N[C@H](C(=O)N[C@@H](Cc2c[nH]c3ccccc23)C(=O)NCC(N)=O)C(C)C)C2CCCCC2)NC(=O)[C@H](CC(=O)O)NC(=O)[C@H](CC(C)C)NC1=O
B4: SEQ ID NO: 465 (peptide)
peptide: Lauroyl-W[NMeA]QKILDEH[Chg]EDVWK-NH2
modifications: lactam 11-15, 4-8 (inferred)
B5: SEQ ID NO: 447 (peptide)
peptide: WAQKILDEHGQRVW
HELM: PEPTIDE1{[CCCCCCCCCCCC(=O)[*:2]].W.[meA].Q.K.I.L.D.E.H.[O=C([C@@H](N[*:1])C1CCCCC1)[*:2]].Q.R.V.W.[am]}$PEPTIDE1,PEPTIDE1,5:R3-9:R3$$$V2.0
SMILES: CCCCCCCCCCCC(=O)N[C@@H](Cc1c[nH]c2ccccc12)C(=O)N(C)[C@@H](C)C(=O)N[C@@H](CCC(N)=O)C(=O)N[C@H]1CCCCNC(=O)CC[C@@H](C(=O)N[C@@H](Cc2c[nH]cn2)C(=O)N[C@H](C(=O)N[C@@H](CCC(N)=O)C(=O)N[C@@H](CCCNC(=N)N)C(=O)N[C@H](C(=O)N[C@@H](Cc2c[nH]c3ccccc23)C(N)=O)C(C)C)C2CCCCC2)NC(=O)[C@H](CC(=O)O)NC(=O)[C@H](CC(C)C)NC(=O)[C@H]([C@@H](C)CC)NC1=O
B6: SEQ ID NO: 444 (peptide)
peptide: EDPQKILDEHLQRVLK
modifications: not fully specified; H23C11C(O)NH-EDPQK*ILDE*HLQRVLK-NH2
B7: SEQ ID NO: 452 (peptide)
peptide: WAQKILNDHGQAV
HELM: PEPTIDE1{[ac].W.[meA].Q.K.I.L.N.D.H.[O=C([C@@H](N[*:1])C1CCCCC1)[*:2]].Q.A.V.[am]}$PEPTIDE1,PEPTIDE1,5:R3-9:R3$$$V2.0
SMILES: CC[C@H](C)[C@@H]1NC(=O)[C@@H](NC(=O)[C@H](CCC(N)=O)NC(=O)[C@H](C)N(C)C(=O)[C@H](Cc2c[nH]c3ccccc23)NC(C)=O)CCCCNC(=O)C[C@@H](C(=O)N[C@@H](Cc2c[nH]cn2)C(=O)N[C@H](C(=O)N[C@@H](CCC(N)=O)C(=O)N[C@@H](C)C(=O)N[C@H](C(N)=O)C(C)C)C2CCCCC2)NC(=O)[C@H](CC(N)=O)NC(=O)[C@H](CC(C)C)NC1=O
B8: SEQ ID NO: 461 (peptide)
peptide: Lauroyl-W[NMeA]QSILDKH[Chg]QDVW-NH2
modifications: lactam 8-12; not fully specified; printed as Lauroyl-NH-W-NMeA-QSILDK*H-Chg-QD*VW-NH2
B9: SEQ ID NO: 448 (peptide)
peptide: AQKILDEHGQRVWR
HELM: PEPTIDE1{[ac].[meA].Q.K.I.L.D.E.H.[O=C([C@@H](N[*:1])C1CCCCC1)[*:2]].Q.R.V.W.R.[am]}$PEPTIDE1,PEPTIDE1,4:R3-8:R3$$$V2.0
SMILES: CC[C@H](C)[C@@H]1NC(=O)[C@@H](NC(=O)[C@H](CCC(N)=O)NC(=O)[C@H](C)N(C)C(C)=O)CCCCNC(=O)CC[C@@H](C(=O)N[C@@H](Cc2c[nH]cn2)C(=O)N[C@H](C(=O)N[C@@H](CCC(N)=O)C(=O)N[C@@H](CCCNC(=N)N)C(=O)N[C@H](C(=O)N[C@@H](Cc2c[nH]c3ccccc23)C(=O)N[C@@H](CCCNC(=N)N)C(N)=O)C(C)C)C2CCCCC2)NC(=O)[C@H](CC(=O)O)NC(=O)[C@H](CC(C)C)NC1=O
B10: SEQ ID NO: 441 (peptide)
peptide: WAQKILDEHGQRVWG
HELM: PEPTIDE1{[ac].W.A.Q.K.I.L.D.E.H.[O=C([C@@H](N[*:1])C1CCCCC1)[*:2]].Q.R.V.W.G.[am]}$PEPTIDE1,PEPTIDE1,5:R3-9:R3$$$V2.0
SMILES: CC[C@H](C)[C@@H]1NC(=O)[C@@H](NC(=O)[C@H](CCC(N)=O)NC(=O)[C@H](C)NC(=O)[C@H](Cc2c[nH]c3ccccc23)NC(C)=O)CCCCNC(=O)CC[C@@H](C(=O)N[C@@H](Cc2c[nH]cn2)C(=O)N[C@H](C(=O)N[C@@H](CCC(N)=O)C(=O)N[C@@H](CCCNC(=N)N)C(=O)N[C@H](C(=O)N[C@@H](Cc2c[nH]c3ccccc23)C(=O)NCC(N)=O)C(C)C)C2CCCCC2)NC(=O)[C@H](CC(=O)O)NC(=O)[C@H](CC(C)C)NC1=O
B11: SEQ ID NO: 40 (peptide)
peptide: H-W[NMeW]E[αMeS]ILDEHVQRVWG-NH2
B12: SEQ ID NO: 443 (peptide)
peptide: WXQKILDEHGQRVWG
HELM: PEPTIDE1{[ac].W.[Aib].Q.K.I.L.D.E.H.[O=C([C@@H](N[*:1])C1CCCCC1)[*:2]].Q.R.V.W.G.[am]}$PEPTIDE1,PEPTIDE1,5:R3-9:R3$$$V2.0
SMILES: CC[C@H](C)[C@@H]1NC(=O)[C@@H](NC(=O)[C@H](CCC(N)=O)NC(=O)C(C)(C)NC(=O)[C@H](Cc2c[nH]c3ccccc23)NC(C)=O)CCCCNC(=O)CC[C@@H](C(=O)N[C@@H](Cc2c[nH]cn2)C(=O)N[C@H](C(=O)N[C@@H](CCC(N)=O)C(=O)N[C@@H](CCCNC(=N)N)C(=O)N[C@H](C(=O)N[C@@H](Cc2c[nH]c3ccccc23)C(=O)NCC(N)=O)C(C)C)C2CCCCC2)NC(=O)[C@H](CC(=O)O)NC(=O)[C@H](CC(C)C)NC1=O
B13: SEQ ID NO: 66 (peptide)
peptide: H-MSRMWYLISFWG-OH
B14: SEQ ID NO: 69 (peptide)
peptide: H-MSRMWFLISFRG-OH
B15: SEQ ID NO: 463 (peptide)
peptide: WPQSILDKHGQDVW
modifications: not fully specified; Lauroyl-NH-WPQSILDK*H-Chg-QD*VW-NH2
B16: SEQ ID NO: 439 (peptide)
peptide: W[NMeA]QSILDEHVQKVWG-NH2
modifications: lactam 8-12; not fully specified (N-terminus); printed as H23C11C(O)NH-W-NmeA-QSILDE*HVQK*VWG-NH2
B17: SEQ ID NO: 472 (peptide)
peptide: WPQSILDEHGQKVWG
modifications: not fully specified; Ac-NH-WPQSILDE*H-Chg-QK*VWG-NH2
B18: SEQ ID NO: 473 (peptide)
peptide: WPQSILDEHGQKVWG
modifications: not fully specified; Lauroyl-NH-WPQSILDE*H-Chg-QK*VWG-NH2
B19: SEQ ID NO: 445 (peptide)
peptide: AQKILDEHGQRVW
HELM: PEPTIDE1{[ac].[meA].Q.K.I.L.D.E.H.[O=C([C@@H](N[*:1])C1CCCCC1)[*:2]].Q.R.V.W.[am]}$PEPTIDE1,PEPTIDE1,4:R3-8:R3$$$V2.0
SMILES: CC[C@H](C)[C@@H]1NC(=O)[C@@H](NC(=O)[C@H](CCC(N)=O)NC(=O)[C@H](C)N(C)C(C)=O)CCCCNC(=O)CC[C@@H](C(=O)N[C@@H](Cc2c[nH]cn2)C(=O)N[C@H](C(=O)N[C@@H](CCC(N)=O)C(=O)N[C@@H](CCCNC(=N)N)C(=O)N[C@H](C(=O)N[C@@H](Cc2c[nH]c3ccccc23)C(N)=O)C(C)C)C2CCCCC2)NC(=O)[C@H](CC(=O)O)NC(=O)[C@H](CC(C)C)NC1=O

These binders were tested against T1, β-catenin (UniProt P35222 134-665, limits assumed, biotinylated in the SPR and plate assays) (assay: cell-based or functional assay).
T1 sequence (looked up): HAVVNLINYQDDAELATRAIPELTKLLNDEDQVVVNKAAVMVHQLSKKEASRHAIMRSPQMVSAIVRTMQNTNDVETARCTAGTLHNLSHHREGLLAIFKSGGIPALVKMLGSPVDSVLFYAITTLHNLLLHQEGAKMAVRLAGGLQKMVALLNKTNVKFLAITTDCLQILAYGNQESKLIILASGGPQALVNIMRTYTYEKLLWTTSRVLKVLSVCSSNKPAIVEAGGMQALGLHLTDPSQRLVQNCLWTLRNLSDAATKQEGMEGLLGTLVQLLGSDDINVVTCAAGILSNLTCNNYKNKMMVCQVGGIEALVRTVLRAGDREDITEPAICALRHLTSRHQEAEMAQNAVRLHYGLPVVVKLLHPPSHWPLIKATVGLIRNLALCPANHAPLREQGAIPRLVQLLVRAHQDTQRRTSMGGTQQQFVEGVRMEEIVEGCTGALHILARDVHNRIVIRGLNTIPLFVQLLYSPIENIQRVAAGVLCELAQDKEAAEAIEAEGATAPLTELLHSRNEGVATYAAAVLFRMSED
With B1 the “Wnt Reporter EC50” value was no more than 7.5 µM.
In the case of B2, the “Wnt Reporter EC50” value is reported as no more than 7.5 µM.
In the case of B3, the “Wnt Reporter EC50” value is reported as > 22.5 µM and ≤ 30 µM.
For B4, the “Wnt Reporter EC50” value was no more than 7.5 µM.
B5 was tested, and the “Wnt Reporter EC50” value was no more than 7.5 µM.
B6 was tested, and the “Wnt Reporter EC50” value was greater than 30 µM.
For B7, the “Wnt Reporter EC50” value was > 15 µM and ≤ 22.5 µM.
For B8, the “Wnt Reporter EC50” value was no more than 7.5 µM.
For B9, the “Wnt Reporter EC50” value was greater than 30 µM.
With B10 the “Wnt Reporter EC50” value was greater than 30 µM.
For B11, the “Wnt Reporter EC50” value was greater than 30 µM.
With B12 the “Wnt Reporter EC50” value was > 7.5 µM and ≤ 15 µM.
With B13 the “Wnt Reporter EC50” value was > 7.5 µM and ≤ 15 µM.
For B14, the “Wnt Reporter EC50” value was greater than 30 µM.
With B15 the “Wnt Reporter EC50” value was no more than 7.5 µM.
B16 was tested, and the “Wnt Reporter EC50” value was > 7.5 µM and ≤ 15 µM.
With B17 the “Wnt Reporter EC50” value was > 7.5 µM and ≤ 15 µM.
With B18 the “Wnt Reporter EC50” value was no more than 7.5 µM.
In the case of B19, the “Wnt Reporter EC50” value is reported as > 22.5 µM and ≤ 30 µM.

These binders were tested against T1, β-catenin (assay: competitive FP).
Outline: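 Competitive fluorescence polarization with inhibitor peptide serially diluted from 10 nM to 30 uM; polarization read at 470 nm excitation, 520 nm emission. Experiments performed three times.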
With B1 the Kd was no more than 400 nM.
With B2 the Kd was no more than 400 nM.
With B3 the Kd was no more than 400 nM.
With B4 the Kd was > 400 nM and ≤ 1000 nM.
Binder B5 has a Kd of no more than 400 nM.
In the case of B6, the Kd is reported as no more than 400 nM.
In the case of B7, the Kd is reported as > 400 nM and ≤ 1000 nM.
Binder B8 has a Kd of no more than 400 nM.
For B9, the Kd was no more than 400 nM.
Binder B10 has a Kd of no more than 400 nM.
Binder B11 has a Kd of no more than 400 nM.
B12 was tested, and the Kd was no more than 400 nM.
For B13, the Kd was > 10000 nM and ≤ 30000 nM.
With B14 the Kd was no more than 400 nM.
Binder B15 has a Kd of no more than 400 nM.
For B16, the Kd was no more than 400 nM.
Work on B17 yielded a Kd of no more than 400 nM.
For B18, the Kd was no more than 400 nM.
Binder B19 has a Kd of no more than 400 nM.

From patent US20260098059A1 (ENDOMET BIOSCIENCES, published 2026)
